Experimental data from US20250027945A1 (University of California, published 2025).

Legend:
[1] = target: T1, human RYK on the surface of human tumor cell lines (human, UniProt P34925 46-607); experiment: flow cytometry, HT144 cells (skin), 5 ug/ml 2-D11-Alexa647
T1 construct: whole, on cells; Endogenous expression
Procedure: (§1) Table 1 provides the flow cytometry data on various cancer cell lines stained with fluorochrome-conjugated 2-D11, as depicted in FIG. 8. The name of each cell line is listed in the first column and the tissue of origin is listed in the second column. Binding of the 2-D11 mAb to human RYK was assessed by flow cytometric staining and analysis by staining on ice for 20 minutes with 5 μg/ml of 2-D11 anti-human RYK-Alexa647 conjugated mAb or equal amounts of isotype matched control mAb, washed, and analyzed. The median fluorescence intensity (MFI) of 2-D11 stained cells is listed in the middle column and the MFI of isotype control stained cells are listed in the in the adjacent column. Cell lines were scored as “++”, “+”, or neg (unmarked with “+”) lines based on the ratio of median fluorescence intensity (MFI) of stained cells relative to the MFI of isotype control stained cells (MFIR).
(§2) The name of each cell line is listed in the first column and the tissue of origin is listed in the second column. Binding of the 2-D11 mAb to human RYK was assessed by flow cytometric staining and analysis by staining on ice for 20 minutes with 5 μg/ml of 2-D11 anti-human RYK-Alexa647 conjugated mAb or equal amounts of isotype matched control mAb, washed and analyzed. […]

[2] = target: T1, human RYK on the surface of human tumor …; experiment: flow cytometry, PC3 cells (prostate), 5 ug/ml 2-D11-Alexa647; line unmarked (no staining)
Procedure: as §1, §2

[3] = target: T1, human RYK on the surface of human tumor …; experiment: flow cytometry, NCI H226 cells (lung), 5 ug/ml 2-D11-Alexa647
Procedure: as §1, §2

[4] = target: T2, recombinant extracellular protein of mouse RYK (mouse, UniProt Q01887 35-211); experiment: immunoblot of recombinant extracellular protein on nylon membrane
T2 construct: also called mRYK; not shown: rabbit IgG tag for purification
Procedure: FIG. 4A illustrates experiments in which binding of 2-D11, 7-H10, 3-C12, 11-E9, 6-B5, 6-D10 and sheep anti-RYK mAb was assessed using recombinant human RYK proteins (SEQ ID NO:129) in which one amino acid that differs between human and mouse RYK within the extracellular domain was replaced with the corresponding amino acid of mouse RYK. Each recombinant protein was transferred onto nylon membrane, probed with the indicated anti-RYK mAb or Sheep anti-RYK Ab, and detected with an anti-mouse IgG or donkey-anti-sheep antibody conjugated with horse radish peroxidase. […]
The anti-human RYK mAbs, 2-D11 and 7-H10, appear specific for an amino terminal epitope of human Ryk (residues 46-57) that are distinct from those in mouse Ryk (FIG. 3); these mAbs also bind mutant forms of Ryk containing amino acid substitutions in human Ryk at positions that differ from that of the highly homologous mouse Ryk to assimilate mouse Ryk at the site of substitution, with amino acid sequence shown in FIG. 3, as shown by immunoblot analyses of recombinant extracellular proteins of human or mouse or each of the various mutant forms of human Ryk (FIG. 4) For this, the binding of 2-D11, 7-H10, or Sheep anti-RYK mAb was assessed using recombinant extracellular RYK proteins as specified in the Key. […]

[5] = target: T1, human RYK on the surface of human tumor …; experiment: flow cytometry, JEKO cells (mantle), 5 ug/ml 2-D11-Alexa647; line unmarked (no staining)
Procedure: as §1, §2

[6] = target: T1, human RYK on the surface of human tumor …; experiment: flow cytometry, SKBR3 cells (breast), 5 ug/ml 2-D11-Alexa647
Procedure: as §1, §2

[7] = target: T1, human RYK on the surface of human tumor …; experiment: flow cytometry, REH cells (ALL), 5 ug/ml 2-D11-Alexa647; line unmarked (no staining)
Procedure: as §1, §2

[8] = target: T1, human RYK on the surface of human tumor …; experiment: flow cytometry, SW620 cells (colon), 5 ug/ml 2-D11-Alexa647; line unmarked (no staining)
Procedure: as §1, §2

[9] = target: T1, human RYK on the surface of human tumor …; experiment: flow cytometry, T24 cells (bladder), 5 ug/ml 2-D11-Alexa647
Procedure: as §1, §2

[10] = target: T1, human RYK on the surface of human tumor …; experiment: flow cytometry, MOLT4 cells (T-cell ALL), 5 ug/ml 2-D11-Alexa647; line unmarked (no staining)
Procedure: as §1, §2

[11] = target: T1, human RYK on the surface of human tumor …; experiment: flow cytometry, HS-578T cells (breast), 5 ug/ml 2-D11-Alexa647
Procedure: as §1, §2

[12] = target: T1, human RYK on the surface of human tumor …; experiment: flow cytometry, OVCAR4 cells (ovarian), 5 ug/ml 2-D11-Alexa647
Procedure: as §1, §2

[13] = target: T1, human RYK on the surface of human tumor …; experiment: flow cytometry, MDA-MB-231 cells (breast), 5 ug/ml 2-D11-Alexa647; line unmarked (no staining)
Procedure: as §1, §2

T1 sequence (P34925 46-607 limits assumed, form in doubt): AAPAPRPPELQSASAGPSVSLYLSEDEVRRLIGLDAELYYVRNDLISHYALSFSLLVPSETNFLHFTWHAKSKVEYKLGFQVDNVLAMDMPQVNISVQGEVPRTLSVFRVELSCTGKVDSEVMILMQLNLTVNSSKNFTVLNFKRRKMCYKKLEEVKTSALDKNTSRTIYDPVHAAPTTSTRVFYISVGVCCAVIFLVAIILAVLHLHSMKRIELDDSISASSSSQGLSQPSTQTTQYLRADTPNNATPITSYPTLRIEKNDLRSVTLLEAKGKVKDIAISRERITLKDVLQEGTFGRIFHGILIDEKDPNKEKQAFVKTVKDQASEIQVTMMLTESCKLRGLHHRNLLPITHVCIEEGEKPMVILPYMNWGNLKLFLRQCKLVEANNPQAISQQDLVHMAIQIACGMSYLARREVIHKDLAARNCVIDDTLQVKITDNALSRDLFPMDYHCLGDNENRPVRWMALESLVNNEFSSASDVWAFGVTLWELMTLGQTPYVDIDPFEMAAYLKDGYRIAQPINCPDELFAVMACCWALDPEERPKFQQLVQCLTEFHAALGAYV
T2 sequence (Q01887 35-211): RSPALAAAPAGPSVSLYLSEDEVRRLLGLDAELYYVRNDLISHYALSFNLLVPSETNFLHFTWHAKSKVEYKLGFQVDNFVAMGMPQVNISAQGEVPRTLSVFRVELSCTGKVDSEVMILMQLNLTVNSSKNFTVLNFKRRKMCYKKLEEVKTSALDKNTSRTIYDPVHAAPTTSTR

B1: 2-D11 anti-human RYK mAb (antibody, V domains shown)
VH: QVQLKESGPGLVAPSQSLSITCSVSGFSLNDYGVNWVRQPPGKDLEWLGMIWGDGVTEYNSTLKSRLSISKDNSKSQVFLKMNNLQTEDTARYYCVRQGSGVWFAHWGQGTLVSVSS
VL: DVLVTQTPLSLPVSLGDQASISCRSSQTIVHSNGNTYLEWYLQKPGQSPKLLIYKVSNRFSGVPDRFSGSGSGTDFTLKISRVEAEDLGIYYCFQGSHVPYTFGGGTKLEIK
notes: Mouse hybridoma mAb, kappa light chain, detected with anti-mouse IgG; also called mAb 2-D11; 2-D11 anti-human RYK-Alexa647 conjugated mAb
In the case of B1, the “MFIR (MFI ratio to isotype control)” value [1] is reported as 1.6, the “MFIR (MFI ratio to isotype control)” value [2] is reported as 1.2 and the “MFIR (MFI ratio to isotype control)” value [3] is reported as 2. For the same binder, the binding result [4] was “no binding”, the “MFIR (MFI ratio to isotype control)” value [5] was 1.3 and the “MFIR (MFI ratio to isotype control)” value [6] was 1.6. The “MFIR (MFI ratio to isotype control)” value [7] was 1, the “MFIR (MFI ratio to isotype control)” value [8] was 1.2 and the “MFIR (MFI ratio to isotype control)” value [9] was 1.6. The “MFIR (MFI ratio to isotype control)” value [10] was 0.9, the “MFIR (MFI ratio to isotype control)” value [11] was 2.7 and the “MFIR (MFI ratio to isotype control)” value [12] was 2.1. For the same binder, the “MFIR (MFI ratio to isotype control)” value [13] was 1.1.
